The results in this text go back to publication doi:10.1101/2021.04.11.439388 (bioRxiv, 2021).

One may read the EC50 as the concentration at which the effect is half-maximal. Low values mean an effect from little substance, high ones a need for much substance. In general, IC50 refers to the concentration needed to halve the response being measured. A higher IC50 goes with weaker potency.

For assay [1], the target named is T1, mouse PD-L1-Fc (mouse, UniProt Q9EP73). The experiment in a line: ELISA.
Assay [2] concerns the target T1, mouse PD-L1-Fc. In words: ELISA. This is another data set of the same source. For orientation: An ELISA detects its analyte on a solid surface through an enzyme-linked reagent.

T1 sequence (Q9EP73 19-239): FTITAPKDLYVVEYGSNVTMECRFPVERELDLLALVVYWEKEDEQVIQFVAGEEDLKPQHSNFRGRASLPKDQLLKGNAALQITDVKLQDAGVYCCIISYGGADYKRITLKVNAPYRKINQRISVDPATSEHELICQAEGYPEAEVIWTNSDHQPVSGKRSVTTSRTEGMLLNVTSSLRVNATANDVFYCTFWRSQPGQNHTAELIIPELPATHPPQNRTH

B1: PD-L1 nanobody Nb16 (VHH linked to an Fc fragment) (VHH)
VHH: QVQLQESGGGSVQAGGSLRLSCAASGYTDRNYWMGWFRQAPGKEREGVAALYTRTGSTYYADSVKGRFTISHDNAKNTLYLQMNSLKPEDTAVYYCAADSNAYGLAPLHHYWGQGTQVTVSS
For B1, the 50% effective concentration (EC50) with mouse PD-L1-Fc [1] turned out to be 0.516 nM. Moreover, the IC50 in the assay with mouse PD-L1-Fc [2] came out at 6.78 nM.
